{"source": "patent US20120070432A1", "about": "“TREATMENT OF PANCREATIC CANCER USING A DR5 AGONIST IN COMBINATION WITH GEMCITABINE” (AMGEN INC., priority 2009, published 2012)", "key": {"[1]": {"test_system": "pancreatic cancer patients", "conditions": "gemcitabine alone, Moore et al.; cited from earlier work"}, "[2]": {"test_system": "patients with advanced solid tumors", "conditions": "cited from earlier work"}, "[3]": {"test_system": "patients with previously untreated metastatic pancreatic cancer", "assay": "Multi-center phase I trial of AMG 655 + gemcitabine", "type": "in vivo", "excerpt": "Example 2 describes the treatment of patients with metastatic pancreatic cancer with AMG 655 in combination with gemcitabine.\nConatumumab (AMG 655) is an investigational, fully human agonist monoclonal antibody (IgG1) that binds human death receptor 5 (DR5), activates caspases, and induces apoptosis in sensitive tumor cells. In a multi-center phase I trial to evaluate AMG 655 +gemcitabine in metastatic pancreatic patients. The primary endpoint was dose-limiting toxicity (DLT). Secondary endpoints included toxicity, pharmacokinetics, antibody formation, objective response rate, progression-free survival (PFS), 6-month and overall survival.\nEligible patients had previously untreated metastatic pancreatic cancer and ECOG PS (Eastern Cooperative Oncology Group Performance Status) 0 or 1. Patients were enrolled into sequential cohorts and received AMG 655 3 or 10 mg/kg IV days (D) 1 and 15 and gemcitabine 1000 mg/m^2IV D 1, 8, and 15 every 28 D. CT scans were obtained Q2 cycles."}, "[4]": {"conditions": "dose cohorts 0.3, 1 and 3 mg/kg"}, "[5]": {"conditions": "of 13 patients with tumor-response data"}}}
{"molecule": "Nc1ccn([C@@H]2O[C@H](CO)[C@@H](O)C2(F)F)c(=O)n1", "note": "[gemcitabine]", "values": [{"measurement": "median overall survival (50% survival)", "setting": "[1]", "result": "approximately 6 months"}, {"measurement": "survival at 1 year", "setting": "[1]", "result": 17, "unit": "%"}]}
{"molecule": "AMG 655: fully human monoclonal agonist antibody (IgG1) that binds human death receptor 5 (DR5); CAS Registry Number 896731-82-1", "values": [{"measurement": "DLTs", "setting": "[2]; 0.3, 1, 3, 10 or 20 mg/kg IV Q2W, 16 patients", "result": "No DLTs"}, {"measurement": "AMG 655-related serious AEs", "setting": "[2]; 0.3-20 mg/kg IV Q2W, 16 patients", "result": "No"}, {"measurement": "MTD", "setting": "[2]; 0.3-20 mg/kg IV Q2W", "result": "not reached"}, {"measurement": "reduction in tumor volume by RECIST", "setting": "[2]; NSCLC patient with partial response", "result": 46, "unit": "%"}, {"measurement": "time on study of partial responder", "setting": "[2]; NSCLC patient, remains on study", "result": "> 48", "unit": "weeks"}, {"measurement": "partial response", "setting": "[2]; NSCLC, tumor-response data for 13 patients", "result": 1, "unit": "patient"}, {"measurement": "grade 3 or higher AMG 655-related AEs", "setting": "[2]; both in the same patient, 0.3-mg/kg cohort", "result": "Fatigue and elevated serum lipase"}, {"measurement": "reduction in maximum standardized uptake value (SUVmax)", "setting": "[2]; colorectal cancer patient with stable disease, metabolic partial response (FDG-PET)", "result": 34, "unit": "%"}, {"measurement": "half-life", "setting": "[2]; [4]", "result": "~240", "unit": "h"}, {"measurement": "kinetics (dose linearity)", "setting": "[2]; [4]", "result": "dose-linear kinetics"}, {"measurement": "anti-AMG 655 antibodies", "setting": "[2]; monotherapy", "result": "No anti-AMG 655 antibodies were detected"}, {"measurement": "progressive disease", "setting": "[2]; [5]", "result": 8, "unit": "patients"}, {"measurement": "stable disease", "setting": "[2]; [5]", "result": 4, "unit": "patients"}, {"measurement": "patients reporting AMG 655-related AEs", "setting": "[2]; of 16 patients", "result": "Nine"}, {"measurement": "treatment-related AE: fatigue", "setting": "[2]; of 16 patients", "result": 3, "unit": "patients"}, {"measurement": "treatment-related AE: hypomagnesaemia", "setting": "[2]; of 16 patients", "result": 3, "unit": "patients"}, {"measurement": "treatment-related AE: pyrexia", "setting": "[2]; of 16 patients", "result": 4, "unit": "patients"}, {"measurement": "tolerability", "setting": "[2]; up to 20 mg/kg Q2W", "result": "well tolerated"}, {"measurement": "anti-AMG 655 antibodies", "setting": "[3]; in combination with gemcitabine", "result": "No anti-AMG 655 antibodies were detected"}, {"measurement": "effect of AMG 655 on pharmacokinetic (PK) of gemcitabine", "setting": "[3]; preliminary data", "result": "no effect"}]}
